In this experiment the target is bovine submaxillary mucin, a source of the TAG-72 antigen (bovine). Briefly: binding activity of the Chx-DTPA conjugate; assay not given.

Consider “HuCC49 CH2 domain-deleted sc(Fv)2 tetravalent antibody conjugated with the chelator Chx-DTPA”, for which the avidity against conjugated control parent huCC49 fell in the range of 5 to 6 fold.

The values are drawn from patent publication US8603473B2.
